No end group written: not given here.
Legend:
[1] = Sedimentation equilibrium analytical ultracentrifugation (SE-AUC); type: physicochemical; conditions: for Oligomeric state (equilibrium model) / Average molecular weight obtained from the fit: SE-AUC; for Oligomeric state (equilibrium model): density matched 10 mM C14-betaine micelles, 100 mM HEPES pH 7.4, 25% D2O, 25 °C; for Average molecular weight obtained from the fit: peptide alone, global fit, single species model, 495 nm (FITC-TLR2) or 400 nm (coumarin-TLR6)
Method: (§1) Supplementary file pone.0048875.s003.tif: Figure S3 TLR2 Homotypic Sedimentation Equilibrium AUC. Sedimentation equilibrium profile at 495 nm of FITC-labeled TLR2 in density matched C14-betaine micelles (10 mM) in HEPES buffer (100 mM, pH 7.4). The partial specific volume and the solution density were fixed at 0.78730 mL/g and 1.031 g/mL, respectively. The data was analyzed using a global fitting routine. […] (TIF) Click here for additional data file.
as §1, with “pone.0048875.s004.tif:” for “pone.0048875.s003.tif:”, “S4 TLR6” for “S3 TLR2”, “400” for “495”, “coumarin-labeled TLR6” for “FITC-labeled TLR2”, “0.78705” for “0.78730”
as §1, with “pone.0048875.s005.tif:” for “pone.0048875.s003.tif:”, “S5 TLR2-TLR6 Heterotypic” for “S3 TLR2 Homotypic”, “7.4) in the presence of 2 equiv. of coumarin-labeled TLR6 peptide.” for “7.4).”
Equilibrium sedimentation was used primarily to determine the association state of TLR2, TLR6, and TLR2-TLR6. The experiments were performed in a Beckman XL-I analytical ultracentrifuge (Beckman Coulter) using six-channel carbon-epoxy composite centerpieces at 25 °C. Peptides were co-dissolved in trifluoroethanol (TFE) and C14-betaine. The organic solvent was removed using dry nitrogen gas and the resulting thin film of peptide/detergent mixture was dried overnight. The sample was then dissolved in buffer previously determined to match the density of the detergent component (100 mM HEPES buffer (pH= 7.4) buffer containing 25% D2O). The final concentration of C14-betaine is 10 mM in all of the samples. Peptide concentrations were determined by UV-Vis on the Beckman Coulter XL-I and dilutions were carried out to get concentrations in the desired absorbance ranges of the instrument (0.3-1) using the following extinction coefficients: 39,300 M^-1cm^-1 at 400 nm for coumarin labeled peptides and 69,000 M^-1cm^-1 at 495 nm for FITC labeled peptides. Data at different measurement speeds (30, 35 krpm) and different peptide:detergent ratios were analyzed by global curve-fitting of radial concentration gradients (measured using optical absorption) to the sedimentation equilibrium equation. Absorbance at both 400 nm and 495 nm was measured. Peptide partial specific volumes were calculated using previously described methods and residue molecular weights corrected for the 25% D2O exchange expected for the density-matched buffer. The solvent density (1.031 g/ml) was calculated using the program Sednterp. These coefficients were multiplied by the molar detergant ratio concentration units. […]
where E = baseline (zero concentration) absorbance, co is the peptide/detergent ratio of the peptide at ro, ε is the molar extinction coefficient, l is the optical path length, ω =2π*RPM, R= 8.3144 ×10^7 erg K^-1mol^-1 , T is temperature in K, M is the buoyant molecular weight of the peptide. […]

[2] = target: T1, 7-hydroxycoumarin labeled TLR6 TMD peptide (Homo sapiens, UniProt Q9Y2C9); assay: FRET titration, TLR2-TLR6; type: binding; conditions: nM of acceptor labeled peptide; donor coumarin-TLR6 20 nM, fluorescein-TLR2 0-1500 nM, 1 mM C14-betaine, 100 mM HEPES pH 7.4; Hill equation; read-out: Dissociation constant, TLR2-TLR6 interaction
T1 construct: we synthesized peptides for the TLR1, TLR2, and TLR6 TMDs; made in house; host or cells: chemical solid-phase synthesis on Rink Amide resin (C-terminal amide)
Method: (§2) Using the same TLR1, TLR2, and TLR6 peptides, as described above, we were able to monitor the heterotypic interactions between TLR2-TLR1 and TLR2-TLR6 using a previously reported Förster resonance energy transfer (FRET) assay. […] The dissociation constant for the TLR2-TLR1 interaction was 230.8±20.0 nM of acceptor labeled peptide and for TLR2-TLR6 it was 286.5±14.8 nM of acceptor labeled peptide (Fig. 6C). […] SE-AUC was also used to investigate the oligomeric state of the TLR2-TLR6 heterotypic interaction.
(§3) Figure 6 TLR2-TLR1 and TLR2-TLR6 Heterotypic Interactions Measured by Förster Resonance Energy Transfer. Synthetic TMD peptides were co-incubated in micelles with the FRET donor concentration fixed to be 20 nM and the FRET acceptor concentration varied from 0–1500 nM. The donor was excited at 415 nm and emission was monitored from 440–600 nm. Only donor emission is shown as the excitation-emission separation led to a high background signal seen in the acceptor channel. (A) TLR2-TLR1 donor channel. (B) TLR2-TLR6 donor channel. (C) FRET efficiency based on decrease in donor signal at increasing acceptor concentrations.
(§4) FRET was used to directly probe the heterotypic association of the synthetic peptides. FRET experiments were performed on a Horiba Fluorolog-3 using a 0.3 cm path length cuvette. […]

[3] = target: T2, 7-hydroxycoumarin labeled TLR1 TMD peptide (Homo sapiens, UniProt Q15399); assay: FRET titration, TLR2-TLR1; type: binding; conditions: nM of acceptor labeled peptide; donor coumarin-TLR1 20 nM, fluorescein-TLR2 0-1500 nM, 1 mM C14-betaine, 100 mM HEPES pH 7.4; Hill equation; read-out: Dissociation constant, TLR2-TLR1 interaction
T2 construct: we synthesized peptides for the TLR1, TLR2, and TLR6 TMDs; made in house; host or cells: chemical solid-phase synthesis on Rink Amide resin (C-terminal amide)
T2 sequence (Q15399 581-601 limits assumed): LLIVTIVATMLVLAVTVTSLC
Method: as §2, §3, §4

[4] = 10 mM C14-betaine, 100 mM HEPES pH 7.4

Row | Substance | Average molecular weight obtained from the fit, in the presence of TLR6 ([1]; SE-AUC at 495 nm, FITC-labeled TLR2 with 2 equiv. of coumarin-labeled TLR6 peptide, 10 mM C14-betaine, 100 mM HEPES pH 7.4) | Oligomeric state (equilibrium model) [1] | Average molecular weight obtained from the fit [1, 4] | Kd [2] | Kd [3]
1 | TLR2*: TLR2 TMD chimera with nonfunctional ToxR* domain (negative phenotype) (GNRASALVSGMCCALFLLILLTGVLCGSLIN; cysteine pairing not given here; also: fused to non-functional ToxR* (S87H) and maltose binding protein, ends not given here) | 12330±506 Da | monomer-dimer-tetramer equilibrium | 14135±370 Da | 286 ± 14.8 nM | 231 ± 20 nM
2 | TLR6*: TLR6 TMD chimera with nonfunctional ToxR* domain (negative phenotype) (GNRASITLLIVTIGATMLVLAVTVTSLCIYLGSLIN; also: fused to non-functional ToxR* (S87H) and maltose binding protein, ends not given here) |  | monomer-dimer equilibrium | 7680±866 Da |  | 

Reference: publication PMC3498381, “Isolated Toll-like Receptor Transmembrane Domains Are Capable of Oligomerization” (PLoS ONE, 2012)
